Consider 2 substances from patent US20090175847A1.

Assay [1] concerns the target Aβ(1-42) fibrils (human) (UniProt P05067). Kind of assay: co-pelleting with Aβ(1-42) fibrils (20 h, 37 °C), SDS-PAGE, densitometry of the antibody heavy chain in pellet and supernatant.
The target in assay [2] is Aβ(1-42) monomer (human). The assay can be described thus: dot blot densitometry; antigen: Aβ(1-42) monomer, 0.1% NH4OH.
Assay [3] concerns the target Aβ(1-42) globulomer (human) (UniProt P05067). The assay can be described thus: dot blot densitometry; antigen: Aβ(1-42) globulomer.
Assay [4] deals with Aβ(1-42) monomer (human). The assay can be described thus: dot blot densitometry; antigen: Aβ(1-42) monomer, 0.1% NaOH.

Chain of Aβ(1-42) fibrils (human) (P05067 672-713 limits assumed): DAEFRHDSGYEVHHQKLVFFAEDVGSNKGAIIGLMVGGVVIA
Chain of Aβ(1-42) monomer (human) (peptide, as listed by the source): as the sequence (P05067 672-713 limits assumed) above
Chain of Aβ(1-42) globulomer (human) (P05067 672-713 limits assumed): as above

For the substance “IgG2a antibody isotype control made against KLH (Keyhole Limpet Hemocyanin)”, in assay [1], the antibody bound to fibrils [%] turned out to be 9%.
As for “mouse monoclonal antibody 6E10 (Signet No 9320)”, the antibody bound to fibrils [%] in assay [1] stood at 91%. In addition, the relation between recognition of Aβ(20-42) globulomer and the respective Aβ form in assay [2] was 1; in assay [3] it was 0.02; in assay [4], 1.
